The source of these data is patent publication US20250243243A1, “DISRUPTION OF SONIC HEDGEHOG-SURF4 INTERACTION FOR CANCER TREATMENT” (The Hong Kong University of Science and Technology, priority 2022, published 2025).

The target of test [1] is T1, GST-SURF4^49-60 (Homo sapiens, UniProt O15260).
T1 construct: N-terminal GST-tagged SURF4^49-60; made in house; host or cells: E. coli
As to the kind of experiment: Peptide binding assay: peptides immobilized on thiopyridone sepharose 6B beads, GST-SURF4^49-60 as prey, immunoblot. Conditions: pull down, immunoblotting with anti-GST antibodies. As for the experimental part: (§1) Immunoprecipitation was performed as described (27). Purification of GST-tagged ShhN^25-49 and GST-tagged […] was performed as described previously (54). GST pull down assays were performed as described previously (54). Peptide binding assay was performed as described previously (27).
(§2) Peptide binding assay was performed as described previously (59). Synthetic CW peptides ([…]; SEQ ID NO: 6), CW^MT peptides ([…]; SEQ ID NO: 9), SURF4^49-61 peptides ([…]; SEQ ID NO: 10), SURF4^49-60 peptides ([…]; SEQ ID NO: 12), or RRFR peptides ([…]; SEQ ID NO: 11) were purchased from GenScript and coupled to thiopyridone-Sepharose 6B beads (Sigma-Aldrich) via the added C-terminal cysteine residue. For binding experiments, 2 ? g purified GST-tagged SURF4^49-60 or Shh^25-49-GST was preincubated at 4° C. for 30 min in a total volume of […] HK buffer. After incubation, […] buffer containing around 5 ? l beads containing 5 nmol of peptides was added to the reaction mixture for 1 h at 4° C. The beads were washed four times with […] of HK buffer and analyzed by immunoblotting.
For orientation: A western blot detects proteins with antibodies after separation by electrophoresis.

The target in test [2] is T2, Shh^25-49-GST (Mus musculus, UniProt Q62226).
T2 construct: C-terminal GST-tagged Shh^25-49; made in house; host or cells: E. coli
As to the kind of experiment: Peptide binding assay: immobilized SURF4 luminal peptides, Shh^25-49-GST as prey, immunoblot. On the set-up: species or system human. Conditions: pull down, immunoblotting with anti-GST antibodies. As for the experimental part: as §1, §2

Test [3] concerns the target T3, GST (Schistosoma japonicum, UniProt P08515).
T3 construct: made in house; host or cells: E. coli
As to the kind of experiment: Peptide binding assay: immobilized peptides, GST as prey, immunoblot. Conditions: pull down, GST control prey. The method, then:
as §1, §2

Test [4] addresses T4, interaction between ShhN and SURF4 (Mus musculus, UniProt Q62226).
T4 construct: Purified GST-tagged human ShhN^25-49 was incubated with lysates; made in house; host or cells: ShhN25-49-GST from E. coli; SURF4-HA in lysates of transfected HEK293T cells
As to the kind of experiment: GST pull down of SURF4-HA from HEK293T lysates by ShhN^25-49-GST in the presence of heparin. Type of test: binding, human. As for the experimental part:
as §1
Purification of GST-tagged ShhN^25-49 and GST-tagged SURF4^49-60 was performed as described previously (58). GST pull down assays were carried out with 10 μl of compact GSH beads bearing around 5 ? g of GST-tagged ShhN^25-49. The beads were incubated with […] of 0.5 mg/ml of cell lysates from HEK293T cells transfected with HA-SURF4 in HKT buffer at pH 6.0 or 7.2 with mixing at 4° C. overnight. After incubation, the beads were washed three times with […] of HKT buffer and twice with […] of HK buffer, and the bound material was analyzed by immunoblotting.

T4 sequence (Q62226 25-49): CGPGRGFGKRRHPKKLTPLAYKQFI
T3 sequence (P08515 whole entry): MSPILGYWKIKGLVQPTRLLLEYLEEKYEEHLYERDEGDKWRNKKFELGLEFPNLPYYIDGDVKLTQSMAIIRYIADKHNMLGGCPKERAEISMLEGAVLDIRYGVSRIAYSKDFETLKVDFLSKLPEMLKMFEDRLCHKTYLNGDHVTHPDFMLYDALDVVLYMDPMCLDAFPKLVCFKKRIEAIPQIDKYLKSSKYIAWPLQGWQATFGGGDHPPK

Take “CW(KR-AA) peptides: Alanine substituted mutant of the CW peptide, AAAHPAAC (SEQ ID NO: 9)”: the “level of GST-SURF4^49-60 bound to immobilized peptides” value in test [1] is “bound more efficiently to the wild-type CW sequence than an alanine substituted mutant”.
The same measure, in the same setting: the entry for “RRFR peptides: Peptides corresponding to the first intracellular loop of Frizzled6, VRRFRYPERPC (SEQ ID NO: 11)” is “significantly lower than that bound to the CW peptides”.
In the case of “SURF4 luminal peptides: First luminal loop of SURF4, SEQRDYIDTTWNC (SEQ ID NO: 10)”, the “interaction of Shh^25-49-GST with immobilized SURF4 luminal peptides” value in test [2] is reported as “interacts”. Moreover, in test [3], the “binding of GST to immobilized peptides” value was “not GST interacts”.
heparin: the “inhibition of the interaction between ShhN and SURF4” value in test [4] (indicated concentrations of heparin) is “inhibited the interaction between ShhN and SURF4 in a concentration-dependent manner”. Besides, the “inhibition of the ShhN-SURF4 interaction at pH 6.0” value in test [4] (pH 6.0) was “still inhibits the ShhN-SURF4 interaction”.
